Measurements reported in US20150344570A1 (published 2015).

B1: GpH7-A5/GpH7-B3 variant I336_10E/GpL16-k0 (antibody, human IgG1, kappa)
heavy 1: not shown
heavy 2: not shown
light: DIVMTQSPLSLPVTPGEPASISCQASESLVHSNRNTYLHWYLQKPGQSPQLLIYKVSNRFSGVPDRFSGSGSGTDFTLKISRVEAEDVGVYYCSQNTHVPPTFGQGTKVEIERTVAAPSVFIFPPSDEQLKSGTASVVCLLNNFYPREAKVQWKVDNALQSGNSQESVTEQDSKDSTYSLSSTLTLSKADYEKHKVYACEVTHQGLSSPVTKSFNRGEC
notes: heterodimerized IgG1, mutation in one H chain; also called He Ab
B2: GpH7-A5/GpH7-B3 variant I336_18N/GpL16-k0 (antibody, human IgG1, kappa)
heavy 1: not shown
heavy 2: not shown
light: DIVMTQSPLSLPVTPGEPASISCQASESLVHSNRNTYLHWYLQKPGQSPQLLIYKVSNRFSGVPDRFSGSGSGTDFTLKISRVEAEDVGVYYCSQNTHVPPTFGQGTKVEIERTVAAPSVFIFPPSDEQLKSGTASVVCLLNNFYPREAKVQWKVDNALQSGNSQESVTEQDSKDSTYSLSSTLTLSKADYEKHKVYACEVTHQGLSSPVTKSFNRGEC
notes: as for B1
B3: GpH7-A5/GpH7-B3 variant K326_14T/GpL16-k0 (antibody, human IgG1, kappa)
heavy 1: not shown
heavy 2: not shown
light: DIVMTQSPLSLPVTPGEPASISCQASESLVHSNRNTYLHWYLQKPGQSPQLLIYKVSNRFSGVPDRFSGSGSGTDFTLKISRVEAEDVGVYYCSQNTHVPPTFGQGTKVEIERTVAAPSVFIFPPSDEQLKSGTASVVCLLNNFYPREAKVQWKVDNALQSGNSQESVTEQDSKDSTYSLSSTLTLSKADYEKHKVYACEVTHQGLSSPVTKSFNRGEC
notes: as for B1
B4: GpH7-A5/GpH7-B3 variant K326_15Y/GpL16-k0 (antibody, human IgG1, kappa)
heavy 1: not shown
heavy 2: not shown
light: DIVMTQSPLSLPVTPGEPASISCQASESLVHSNRNTYLHWYLQKPGQSPQLLIYKVSNRFSGVPDRFSGSGSGTDFTLKISRVEAEDVGVYYCSQNTHVPPTFGQGTKVEIERTVAAPSVFIFPPSDEQLKSGTASVVCLLNNFYPREAKVQWKVDNALQSGNSQESVTEQDSKDSTYSLSSTLTLSKADYEKHKVYACEVTHQGLSSPVTKSFNRGEC
notes: as for B1
B5: GpH7-A5/GpH7-B3 variant K326_16H/GpL16-k0 (antibody, human IgG1, kappa)
heavy 1: not shown
heavy 2: not shown
light: DIVMTQSPLSLPVTPGEPASISCQASESLVHSNRNTYLHWYLQKPGQSPQLLIYKVSNRFSGVPDRFSGSGSGTDFTLKISRVEAEDVGVYYCSQNTHVPPTFGQGTKVEIERTVAAPSVFIFPPSDEQLKSGTASVVCLLNNFYPREAKVQWKVDNALQSGNSQESVTEQDSKDSTYSLSSTLTLSKADYEKHKVYACEVTHQGLSSPVTKSFNRGEC
notes: as for B1
B6: GpH7-A5/GpH7-B3 variant K334_10E/GpL16-k0 (antibody, human IgG1, kappa)
heavy 1: not shown
heavy 2: not shown
light: DIVMTQSPLSLPVTPGEPASISCQASESLVHSNRNTYLHWYLQKPGQSPQLLIYKVSNRFSGVPDRFSGSGSGTDFTLKISRVEAEDVGVYYCSQNTHVPPTFGQGTKVEIERTVAAPSVFIFPPSDEQLKSGTASVVCLLNNFYPREAKVQWKVDNALQSGNSQESVTEQDSKDSTYSLSSTLTLSKADYEKHKVYACEVTHQGLSSPVTKSFNRGEC
notes: as for B1
B7: GpH7-A5/GpH7-B3 variant P271_03V/GpL16-k0 (antibody, human IgG1, kappa)
heavy 1: not shown
heavy 2: not shown
light: DIVMTQSPLSLPVTPGEPASISCQASESLVHSNRNTYLHWYLQKPGQSPQLLIYKVSNRFSGVPDRFSGSGSGTDFTLKISRVEAEDVGVYYCSQNTHVPPTFGQGTKVEIERTVAAPSVFIFPPSDEQLKSGTASVVCLLNNFYPREAKVQWKVDNALQSGNSQESVTEQDSKDSTYSLSSTLTLSKADYEKHKVYACEVTHQGLSSPVTKSFNRGEC
notes: as for B1
B8: GpH7-A5/GpH7-B3 variant P271_04F/GpL16-k0 (antibody, human IgG1, kappa)
heavy 1: not shown
heavy 2: not shown
light: DIVMTQSPLSLPVTPGEPASISCQASESLVHSNRNTYLHWYLQKPGQSPQLLIYKVSNRFSGVPDRFSGSGSGTDFTLKISRVEAEDVGVYYCSQNTHVPPTFGQGTKVEIERTVAAPSVFIFPPSDEQLKSGTASVVCLLNNFYPREAKVQWKVDNALQSGNSQESVTEQDSKDSTYSLSSTLTLSKADYEKHKVYACEVTHQGLSSPVTKSFNRGEC
notes: as for B1
B9: GpH7-A5/GpH7-B3 variant P271_06M/GpL16-k0 (antibody, human IgG1, kappa)
heavy 1: not shown
heavy 2: not shown
light: DIVMTQSPLSLPVTPGEPASISCQASESLVHSNRNTYLHWYLQKPGQSPQLLIYKVSNRFSGVPDRFSGSGSGTDFTLKISRVEAEDVGVYYCSQNTHVPPTFGQGTKVEIERTVAAPSVFIFPPSDEQLKSGTASVVCLLNNFYPREAKVQWKVDNALQSGNSQESVTEQDSKDSTYSLSSTLTLSKADYEKHKVYACEVTHQGLSSPVTKSFNRGEC
notes: as for B1
B10: GpH7-A5/GpH7-B3 variant P271_07I/GpL16-k0 (antibody, human IgG1, kappa)
heavy 1: not shown
heavy 2: not shown
light: DIVMTQSPLSLPVTPGEPASISCQASESLVHSNRNTYLHWYLQKPGQSPQLLIYKVSNRFSGVPDRFSGSGSGTDFTLKISRVEAEDVGVYYCSQNTHVPPTFGQGTKVEIERTVAAPSVFIFPPSDEQLKSGTASVVCLLNNFYPREAKVQWKVDNALQSGNSQESVTEQDSKDSTYSLSSTLTLSKADYEKHKVYACEVTHQGLSSPVTKSFNRGEC
notes: as for B1
B11: GpH7-A5/GpH7-B3 variant P271_11K/GpL16-k0 (antibody, human IgG1, kappa)
heavy 1: not shown
heavy 2: not shown
light: DIVMTQSPLSLPVTPGEPASISCQASESLVHSNRNTYLHWYLQKPGQSPQLLIYKVSNRFSGVPDRFSGSGSGTDFTLKISRVEAEDVGVYYCSQNTHVPPTFGQGTKVEIERTVAAPSVFIFPPSDEQLKSGTASVVCLLNNFYPREAKVQWKVDNALQSGNSQESVTEQDSKDSTYSLSSTLTLSKADYEKHKVYACEVTHQGLSSPVTKSFNRGEC
notes: as for B1

What follows are binders tested against T1, FcγRIa (human, UniProt P12314 16-292) (assay: SPR (Biacore), captured antibody, FcγRIa analyte; relative to HeCon Ab GpH7-A5/GpH7-B3/GpL16-k0 = 100).
T1 construct: extracellular domain; soluble extracellular domain with C-terminal His tag, expressed in FreeStyle293 cells; also called FcgRI; FcgRIa
T1 sequence (P12314 16-292): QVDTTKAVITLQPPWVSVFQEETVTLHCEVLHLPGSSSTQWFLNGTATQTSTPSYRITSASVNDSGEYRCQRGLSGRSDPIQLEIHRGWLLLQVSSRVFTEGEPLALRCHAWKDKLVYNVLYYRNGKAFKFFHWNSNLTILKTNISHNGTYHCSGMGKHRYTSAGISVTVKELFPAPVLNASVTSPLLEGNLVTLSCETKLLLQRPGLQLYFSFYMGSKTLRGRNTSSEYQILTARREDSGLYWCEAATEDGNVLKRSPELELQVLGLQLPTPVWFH

Binder | He/Con_1a
B1 | 108 % of control
B2 | 108 % of control
B3 | 104 % of control
B4 | 106 % of control
B5 | 103 % of control
B6 | 110 % of control
B7 | 102 % of control
B8 | 102 % of control
B9 | 102 % of control
B10 | 102 % of control
B11 | 103 % of control
